Results on two proteins are retold here after PMC8610301 (Current Research in Microbial Sciences, 2021).

Data set [1] concerns the molecule itself. Kind of data set: immunoblot after SDS-PAGE.
Data set [2] deals with the molecule itself. Kind of data set: immunoblot after SDS-PAGE. This is another data set of the same source.

Read-outs that look alike come from different tables or passages of the source.

B1: recombinant Cas2 of Leptospira interrogans (LinCas2) (enzyme, UniProt Q8F1F4 1-94, looked up)
chain: MKHWRLVSYDIREPKRLRRVAKIMEGFGERIQYSVFRIYSTDKELEKLRWKLAKVTEEEDNIFYLTLCTKCASGAHTQEKKSAWPEAPKTLKIL
Regarding B1, in data set [1], the “stoichiometry N” value was 2.

B2: native LinCas2 in the lysate of L. interrogans serovar Copenhageni (natural protein, UniProt Q8F1F4 1-94, looked up)
chain: B1 chain
Consider B2, for which the “stoichiometry N” value in data set [2] came to 2.
